Assay results as given in US20070154994A1.

Assays:
[1] = biological target: Recombinant human TGF-β1 (human) (UniProt P01137); test: SPR, TGF-β1 coupled, rearrangement model, Kdapp
[2] = biological target: Recombinant human TGF-β1 (human) (UniProt P01137); test: SPR, TGF-β1 coupled, rearrangement model, kass#1
[3] = biological target: Recombinant human TGF-β1 (human) (UniProt P01137); test: SPR, TGF-β1 coupled, rearrangement model, Kd 1 (initial binding step)
[4] = biological target: Recombinant human TGF-β1 (human) (UniProt P01137); test: SPR, TGF-β1 coupled, rearrangement model, Kdiss#1
[5] = biological target: Recombinant human TGF-β1 (human) (UniProt P01137); test: SPR, TGF-β1 coupled, rearrangement model, rearrangement step

Recombinant human TGF-β1 (human), sequence (P01137 279-390 limits assumed): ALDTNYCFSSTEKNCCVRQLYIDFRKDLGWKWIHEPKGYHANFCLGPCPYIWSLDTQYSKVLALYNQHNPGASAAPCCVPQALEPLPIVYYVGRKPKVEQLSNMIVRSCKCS

B1: untagged CtermTβRIIIED (receptor, UniProt P26342 576-782, looked up)
chain: RQLRNPSGFQGQLDGNATFNMELYNTDLFLVPSPGVFSVAENEHVYVEVSVTKADQDLGFAIQTCFLSPYSNPDRMSDYTIIENICPKDDSVKFYSSKRVHFPIPHAEVDKKRFSFLFKSVFNTSLLFLHCELTLCSRKKGSLKLPRCVTPDDACTSLDATMIWTMMQNKKTFTKPLAVVLQVDYKENVPSTKDSSPIPPPPPQIFH
- Kd [1]: 302 nM
- kon [2]: 75000 M⁻¹ s⁻¹
- Kd [3]: 713 nM
- koff [4]: 0.0535 s⁻¹
- kass#2 [5]: 0.0029 s⁻¹
- kd 2 (no unit) [5]: 0.73 no unit
- kdiss#2 [5]: 0.00217 s⁻¹
